Assay results reported in PMC2137388.

Target: L chains of normal human 7S γ-globulin (human)
Test: AUC

per cent of the material at the molecular weight of the dimer: 84 per cent
Substance: L chains of normal human 7S γ-globulin (natural protein)
